Numbering of substitutions follows the chain as printed. Like-named read-outs stand apart in the source and are kept apart here.
T1: BoNT/F 202F (Clostridium botulinum, UniProt P30996 1-1274)
T1 sequence: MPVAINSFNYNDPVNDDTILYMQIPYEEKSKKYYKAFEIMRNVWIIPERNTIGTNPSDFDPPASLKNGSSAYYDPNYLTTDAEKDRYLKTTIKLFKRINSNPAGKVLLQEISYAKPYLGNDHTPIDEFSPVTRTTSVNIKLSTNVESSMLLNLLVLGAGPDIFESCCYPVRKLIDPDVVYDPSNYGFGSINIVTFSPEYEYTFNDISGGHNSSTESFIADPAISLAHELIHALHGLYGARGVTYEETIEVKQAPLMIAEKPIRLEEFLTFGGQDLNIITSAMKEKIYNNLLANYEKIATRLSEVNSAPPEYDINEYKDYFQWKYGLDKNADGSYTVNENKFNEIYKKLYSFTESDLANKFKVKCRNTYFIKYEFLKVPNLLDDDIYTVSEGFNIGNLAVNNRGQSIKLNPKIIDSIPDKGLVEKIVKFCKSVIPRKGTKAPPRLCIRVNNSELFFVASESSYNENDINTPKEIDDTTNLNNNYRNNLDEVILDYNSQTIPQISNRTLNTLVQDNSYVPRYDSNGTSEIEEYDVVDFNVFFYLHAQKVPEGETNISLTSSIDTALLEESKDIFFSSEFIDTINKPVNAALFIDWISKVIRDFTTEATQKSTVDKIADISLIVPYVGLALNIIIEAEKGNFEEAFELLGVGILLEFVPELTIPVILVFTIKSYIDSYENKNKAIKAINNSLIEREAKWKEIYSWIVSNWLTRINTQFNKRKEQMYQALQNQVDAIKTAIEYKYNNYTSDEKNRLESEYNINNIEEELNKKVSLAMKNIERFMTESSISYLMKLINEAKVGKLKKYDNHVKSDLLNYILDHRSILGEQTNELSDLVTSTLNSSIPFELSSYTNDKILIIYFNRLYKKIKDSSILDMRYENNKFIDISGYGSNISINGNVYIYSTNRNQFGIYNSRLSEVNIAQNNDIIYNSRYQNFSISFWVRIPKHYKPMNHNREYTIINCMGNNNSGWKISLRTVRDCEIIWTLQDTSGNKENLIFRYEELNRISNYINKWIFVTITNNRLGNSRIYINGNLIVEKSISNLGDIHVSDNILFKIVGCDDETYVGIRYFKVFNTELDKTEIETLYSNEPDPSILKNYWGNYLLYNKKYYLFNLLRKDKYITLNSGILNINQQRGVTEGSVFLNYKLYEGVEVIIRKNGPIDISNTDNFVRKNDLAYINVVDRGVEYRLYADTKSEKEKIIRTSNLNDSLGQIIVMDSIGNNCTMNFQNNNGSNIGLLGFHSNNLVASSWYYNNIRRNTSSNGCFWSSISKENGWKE

T2: BoNT/F1 (proteolytic BoNT/F) (Clostridium botulinum, UniProt A7GBG3 1-1278)
T2 sequence: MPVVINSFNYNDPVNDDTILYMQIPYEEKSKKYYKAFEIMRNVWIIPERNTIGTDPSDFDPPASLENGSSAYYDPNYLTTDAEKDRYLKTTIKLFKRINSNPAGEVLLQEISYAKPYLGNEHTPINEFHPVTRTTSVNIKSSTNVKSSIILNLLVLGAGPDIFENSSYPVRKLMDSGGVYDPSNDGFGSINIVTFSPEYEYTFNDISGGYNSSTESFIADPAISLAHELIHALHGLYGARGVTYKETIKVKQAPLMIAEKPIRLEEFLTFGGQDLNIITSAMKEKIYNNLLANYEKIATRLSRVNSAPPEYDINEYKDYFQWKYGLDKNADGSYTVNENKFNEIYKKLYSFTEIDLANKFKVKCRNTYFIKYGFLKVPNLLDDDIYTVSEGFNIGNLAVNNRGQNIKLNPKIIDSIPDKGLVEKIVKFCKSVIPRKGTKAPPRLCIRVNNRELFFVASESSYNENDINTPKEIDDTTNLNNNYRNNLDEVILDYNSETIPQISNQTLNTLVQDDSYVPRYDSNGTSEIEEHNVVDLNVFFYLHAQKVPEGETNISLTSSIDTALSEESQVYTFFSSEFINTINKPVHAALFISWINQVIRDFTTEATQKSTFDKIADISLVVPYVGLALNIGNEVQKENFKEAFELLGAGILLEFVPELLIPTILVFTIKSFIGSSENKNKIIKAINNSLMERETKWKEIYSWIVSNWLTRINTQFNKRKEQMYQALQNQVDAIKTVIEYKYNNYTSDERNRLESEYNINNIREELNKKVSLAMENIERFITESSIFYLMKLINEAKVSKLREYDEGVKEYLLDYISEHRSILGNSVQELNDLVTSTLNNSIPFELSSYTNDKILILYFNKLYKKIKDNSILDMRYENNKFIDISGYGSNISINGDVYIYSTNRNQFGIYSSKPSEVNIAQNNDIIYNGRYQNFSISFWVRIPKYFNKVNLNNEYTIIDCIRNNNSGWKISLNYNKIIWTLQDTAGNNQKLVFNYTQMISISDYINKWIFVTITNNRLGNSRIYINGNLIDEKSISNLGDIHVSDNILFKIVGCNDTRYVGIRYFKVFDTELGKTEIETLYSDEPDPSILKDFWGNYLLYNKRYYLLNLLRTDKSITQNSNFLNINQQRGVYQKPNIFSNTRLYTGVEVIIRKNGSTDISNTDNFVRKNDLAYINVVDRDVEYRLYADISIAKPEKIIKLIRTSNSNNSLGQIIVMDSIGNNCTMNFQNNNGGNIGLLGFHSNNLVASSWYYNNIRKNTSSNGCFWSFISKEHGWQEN

T3: BoNT/F6 (Clostridium botulinum, UniProt P30996 1-1274)
T3 sequence: T1 sequence

B1: 6A8M IgG (antibody, V domains shown)
VH: QVQLKESGPGLVKPSQTVSLTCTVTGYSITNGNHWWNWIRQVSGSKLEWIGYISSSGYTDINPSLKSRISITRDTSKNQLFLQLNSVTTEDIATYYCARDDGYYEALDYWGQGTSVTVSS
VL: DIVMSQSPAIMSASPGEKVTLTCSASSSVSSNYLYWYQQKPGSSPKLWIYSTSNLASGVPARFSGSGSGTSYSLTISRVEAEDAATYYCQQWSSNPPTFGGGTKLEIK
notes: IgG converted from scFv
B2: 6A1M IgG (antibody, V domains shown)
VH: LQLKQSGPGLVKPSQSLSLTCSVTGYSITSGYYWYWIRQFPGNKLEWMGYISYDGSNNYNPSLKNRISITRDTSKNQFFLKLNSVTTEDTATYYCARNLGLWYFDVWGTGTPLTVSS
VL: EIVLTQSPAILSASPGEKVTMTCRASSSVRYMHWYQQKPGSSPKPWIYATSNLASGVPARFSGSGSGTSYSLTISRVEAEDAATYYCQQWSGNAPTFGGGTKLEIK
notes: IgG converted from scFv
B3: B4 (antibody) (antibody, V domains shown)
VH: QVQLVESGGGVVRPGGSLRLSCAASGFTFDDYGMSWVRQAPGKGLEWVSAINWNGGNTGYADSVKGRFTISRDNAKNSLYLQMNSLRVEDTALYHCAREGDYGGLYFDYWGQGTLVTVSS
VL: not shown
B4: ING2 IgG (antibody, V domains shown)
VH: QVQLVQSGAEVKKPGSSVKVSCKASGDTFNRNAIAWVRQAPGQGLEWMGRIIPNLRTTHYAQKFQGRVAITADKHTNTVFMELSSLRSEDTAVYYCARDPYYYSYMDVWGKGTTVTVSS
VL: not shown
B5: 28H2 scFv (scFv, V domains shown)
VH: QVQLQESGPGLVKPSQTVSLTCTVAGYSITNGNHWWNWIRQVSGSKLEWIGYITSSGSTDSNPSLKSRISITRDTSKNQLFLQLNSVTTEDIATYYCARSSNYFFHVLDYWGQGTSVTVSS
VL: DIVLTQTPAIMSASPGEKVTMTCSASSSVSYMHWFQQKPGTSPKLWIYSTSNLASGVPARFSGSGSGTSYSLTISRMEAEDAATYYCQQRSSYPPTFGGGTRLEIK
B6: 4E17.2 scFv (scFv, V domains shown)
VH: EVQLVQSGGNLVQPGGSLRLSCAATGPIGSHWMTWVRQAPGQGLEWVANINLDGTEKFYVDSVKGRFTVSRDNRKSSVFLQMNNLRVDDTAVYYCARLQWGGYNGWLSPWGQGTLVTVSS
VL: DIEMTQSPPSLSASVGDRVSLTCRASEYIGTSLNWYQQKPGKAPKLLIYAASALHSGVPSRFSGSGSGTDFTLTISGLQPEDFATYYCQQANDLPLTFGGGTKLEIK
B7: 4E17.1 (antibody, V domains shown)
VH: B6 VH with Q6R
VL: DIVMTQSPSSLSASVGDRVTISCRASQSIRHYVNWYQQKPGKAPKLLIYKASSLASGAPSRFSGSGSGTDFTLTISSLQPDDFATYYCQQSYSIPLTFGGGTKVEIKR
B8: 42G8 scFv (scFv, V domains shown)
VH: B6 VH with Q6P
VL: B6 VL with E3V, A91T
B9: A9 (antibody, V domains shown)
VH: QVQLVQSGGGVVQPGRSLRLSCAASGFTFSSYGMHWVRQAPGKGLEWVSSISSSSSYIYYADSVKGRFTISRDNSKNTLYLQMNSLRAEDTAVYYCARGAVAGGSYGMDVWGQGTMVTVSS
VL: not shown

Key:
[1] = target: BoNT/A light chain (recombinant) (Clostridium botulinum, UniProt P0DPI0 1-448); test: KinExA, IgG
[2] = target: T4, BoNT/A1 holotoxin (Hall hyper) (Clostridium botulinum, UniProt P0DPI0 2-1296); test: KinExA, IgG
[3] = target: T5, BoNT/A2 holotoxin (FRI-H1A2) (Clostridium botulinum, UniProt Q45894 2-1296); test: KinExA, IgG
[4] = target: T4, BoNT/A1 holotoxin (Hall hyper)
BoNT/F 202F = target: T1, BoNT/F 202F; test: yeast scFv FACS
[5] = target: T2, BoNT/F1 (proteolytic BoNT/F); test: yeast scFv FACS
[6] = target: T2, BoNT/F1 (proteolytic BoNT/F); test: yeast scFv FACS; remark: listed apart in the source
BoNT/F6 = target: T3, BoNT/F6; test: yeast scFv FACS
[7] = target: T2, BoNT/F1 (proteolytic BoNT/F)
[8] = target: T5, BoNT/A2 holotoxin (FRI-H1A2)

Row | Binder | Kd [1] | Kd [2] | Kd [4] | binding result (BoNT/F 202F) | Kd [5] | other results
1 | B1 | 4.99 nM | 0.852 nM |  |  |  | 
2 | B2 | 1.38 nM | 0.00921 nM |  |  |  | Kd [3]: 0.00289 nM
3 | B3 |  |  | 0.0931 nM |  |  | 
4 | B4 | 85.7 nM | 0.00957 nM |  |  |  | Kd [3]: 0.00742 nM
5 | B5 |  |  |  | no binding | 1.55 nM | Kd [6]: 1.55 nM; binding result (BoNT/F6): no binding (tested: maximum toxin concentration tested)
6 | B6 |  |  |  | binds | 0.39 nM | Kd [7]: < 1 nM; Kd [6]: 0.39 nM
7 | B7 |  |  | 0.00183 nM |  |  | Kd [8]: 0.00798 nM
8 | B8 |  |  |  | binds | 0.243 nM | fold increase in affinity over scFv 4E17.2 [7]: ~6 fold
9 | B9 |  |  | 0.0771 nM |  |  | Kd [8]: 0.223 nM

From patent publication US20220089784A1 (University of California, published 2022)
